T1: PtxS (assayed together with PtxR at Pgad) (Pseudomonas aeruginosa, UniProt G3XD97)
T1 sequence (G3XD97 1-340): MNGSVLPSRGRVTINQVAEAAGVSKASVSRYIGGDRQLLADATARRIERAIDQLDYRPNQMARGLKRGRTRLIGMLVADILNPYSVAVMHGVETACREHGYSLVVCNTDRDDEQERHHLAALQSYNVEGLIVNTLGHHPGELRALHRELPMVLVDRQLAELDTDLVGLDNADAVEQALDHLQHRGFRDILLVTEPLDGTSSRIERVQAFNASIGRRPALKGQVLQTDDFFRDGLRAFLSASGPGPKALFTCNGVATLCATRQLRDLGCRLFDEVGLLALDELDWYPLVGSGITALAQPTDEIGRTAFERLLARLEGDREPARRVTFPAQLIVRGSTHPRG

T2: PtxR (Pseudomonas aeruginosa, UniProt P72131 1-312)
T2 sequence (looked up): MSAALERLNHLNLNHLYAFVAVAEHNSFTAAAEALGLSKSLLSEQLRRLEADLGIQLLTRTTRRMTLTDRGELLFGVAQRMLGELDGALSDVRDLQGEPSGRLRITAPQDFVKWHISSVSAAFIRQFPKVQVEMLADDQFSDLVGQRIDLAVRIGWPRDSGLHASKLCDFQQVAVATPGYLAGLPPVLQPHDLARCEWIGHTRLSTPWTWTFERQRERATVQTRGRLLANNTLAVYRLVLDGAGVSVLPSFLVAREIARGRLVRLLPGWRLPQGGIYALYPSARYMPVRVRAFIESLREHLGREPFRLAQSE


Key:
[1] = molecular target: T1, PtxS (assayed together with PtxR at Pgad); assay type: biochemical
PtxR = molecular target: T2, PtxR; experiment: ITC

| Molecule | EC50 [1] | KD of the first binding event (PtxR) | KD of the second binding event (PtxR) | dH of the first binding event (PtxR) | dH of the second binding event (PtxR) |
| --- | --- | --- | --- | --- | --- |
| O=C(O)C(=O)[C@@H](O)[C@H](O)[C@H](O)CO [2-ketogluconate] | 78000 nM | – | – | – | – |
| PtxS (natural protein, Pseudomonas aeruginosa, UniProt G3XD97 1-340, looked up) MNGSVLPSRGRVTINQVAEAAGVSKASVSRYIGGDRQLLADATARRIERAIDQLDYRPNQMARGLKRGRTRLIGMLVADILNPYSVAVMHGVETACREHGYSLVVCNTDRDDEQERHHLAALQSYNVEGLIVNTLGHHPGELRALHRELPMVLVDRQLAELDTDLVGLDNADAVEQALDHLQHRGFRDILLVTEPLDGTSSRIERVQAFNASIGRRPALKGQVLQTDDFFRDGLRAFLSASGPGPKALFTCNGVATLCATRQLRDLGCRLFDEVGLLALDELDWYPLVGSGITALAQPTDEIGRTAFERLLARLEGDREPARRVTFPAQLIVRGSTHPRG | – | 12 ± 2 nM | 99 ± 8 nM | -27.3 ± 0.7 kcal/mol | -13 ± 0.8 kcal/mol |
